Measurements taken from the DeepSol protein solubility set.

experiment: soluble on expression in E. coli; label from the status in PepcDB or PDB records

| Sequence | soluble on expression in E. coli |
| --- | --- |
| MGWFGFGGNPTDTPSSSAEVSAAPIDLSAGMNFSVPGFDAPAPEPSVPDHSPFPAAPVLALDQLKSAGVGVSRQMTPYVQMDPSMFASQQPQYIMPEGGVAGKGKFEFALGHIGWAVGGAFGVGCARGALGELMNPETRKMVGKPWMTRMVNATMKHGSGFAQPSGAIVFMYSALEIGLRSVRAEDELNGFGAGALTGAIYRSPHGLKASGVGALVGLGIAAAWTLSSTDSRQRLSEMFSNH | soluble |
| MGYAVLHLEKAKGTDSRMSAHIERTVHPKNADRTRTHLNRELVQFPEGVRNRTQAIAQRIETAGIRRKVSANQVKAIRILLTGSNKDMKQMEAEGRIEDWCNDSLKWIRETYGEQNLVSAVLHMDEKTPHIHATVIPIMTGERRKAGQEEQNGKKKYRKKNPQDVRLCADDVMARHRLKHYQDTYAQAMNKYGLQRGVDGSLAKHISTMQYYKQLVEQQDSLQENIENLLGLEEEAMKKLKQVKGEINVQKMKGAAVNATTAIADGVSSLFGGSKVKRLEAENENLKRNIVNLQKQVQAEQREQTKMENRHSSEINRVDRSYRQKIAEYDNRLELIDTYFPIVKELIPIAEQCREVGFTEELTRRIVSLQPVEFKGRLYSKEYKEKFRTEHSTATVERTPQEKGKFRLCIDGIPILDWFRKKFQEIKEKLGLNTPVENKQRKGLKILEHHHHHH | not soluble |
| MGYTKAEILKALKGENVKFLRLQITDILGVVKNVEVPESQFEKALDGEIMFDGSSIEGFTRIEESDMLLRPDYNTFVILPDLVEDPKRGRVARLICDVYYPDGRPFEGDPRYVLKRQIERLKKLGFDNLYAGPEPEFFLFLRTPEGLPTTETHDRAGYFDLAPIDKGEEARRDMVNALVAMGFEIEAAHHEVAPGQHEIDFKYADALTTADNIATFKWVVKRIALNHGLHATFLPKPIRGINGSGMHTHLSLFKDGENAFYDPNAEYQLSQTALHFIAGLLEHAAGMVAVTNPLVNSYKRLTPGYEAPTNIAWSASNRSAMIRIPARRGVGTRAELRMPDPSCNPYLALAVMAAAGADGIERKLLPPPPIQRNIYQMTVRERRKHKIRELPGTLREALEALRKDPVIREALGEHVYTHFLQAKQMEWDDYRVTVHQWELDRYLATY | soluble |
| MGYVEIIEQPKQRGMRFRYKCEGRSAGSIPGERSTDTTKTHPTIKINGYTGPGTVRISLVTKDPPHRPHPHELVGKDCRDGFYEAELCPDRCIHSFQNLGIQCVKKRDLEQAISQRIQTNNNPFQVPIEEQRGDYDLNAVRLCFQVTVRDPSGRPLRLPPVLSHPIFDNRAPNTAELKICRVNRNSGSCLGGDEIFLLCDKVQKEDIEVYFTGPGWEARGSFSQADVHRQVAIVFRTPPYADPSLQAPVRVSMQLRRPSDRELSEPMEFQYLPDGSLSSGSSLSSPSAGAAPRVLFGEWLLGEISSGCYEGLQWLDEARTCFRVPWKHFARKDLSEADARIFKAWAVARGRWPPSSRGGGPPPEAETAERAGWKTNFRCALRSTRRFVMLRDNSGDPADQHKVYALSGSLSSDSSLSSPSALSPKPRILPWLVSQLDLGQLEGVAWVNKSRTRFRIPWKHGLRQDAQQEDFGIFQAWAEATGAYVPGRDKPDLPTWKRNFRSALNRKEGLRLAEDRSKDPHDPHKIYEFVNGLEHHHHHH | soluble |
| MHCDLPCGVYDPAQARIEAESVKAVQEKMAGNDDPHFQTRATVIKEQRAELAKHHVSVLWSDYFKPPHFEKYPELHQLVNDTLKAMSAAKGSKDPATGQKALDYIAQIDKIFWETKKA | soluble |
| MHDASHNSLFKTKWMNDYLVDWLCARPIWNDVHKYRTHHTRHHAKTSTPEDPDLTLVAGFPTTKTSLTRKFLRDLVGITGFKFTVGRILMDAEVLKWTVANDLTWLPRENRQWYDYPKVFLKNSSKAIIANASIFGILWAFGRPELYLLWPLAYLTPFPLFIRIRSMAEHAGTQISNNALTNTRTTKAGWLARAFVAPIRVNYHMEHHLMAAVPFFKLPKMHQMLRERGHVPEPPTYVQVIHMLSSHQTNQHPLNSVEQGELEHHHHHH | soluble |
| MHEMRELAQGSLKEMRTLIWQLRPAGLEKGLLPALKQYGESLGLKIREQVTGVRDLPRVVEEALWRIGQEALNNVSKHANVREATIYFKVTEKNVSLEIVDQGNGFVEKNIKEKKSLGMTTMRERVELVGGTIKIVSDKKRTSVKVNVPL | not soluble |
| MHFTPALKPGKLLKRYKRFLADVQLEDGSEITVHCPNTGSMRNCLFPGETLWFSTSSNTKRKYAHTWELMTTPTGALIGIHSGNANALVEEALNKGIITELTGYDSLRREVKYGDENSRIDILLECAQKTACYIEVKSCTLQENGQGYFPDAVSLRGQKHLRELMHMASLGHRAVLLFVVQHTDIMSVAPAAHIDPEYANLLKKSVLSGVEVLAYRCEISPSEIHLAQSCPVRV | soluble |
